Assay results taken from the supplement of paper PMC12764529.
± gives the half width of the 95% confidence interval.

Assays:
[1] = folding stability dG unfold from trypsin proteolysis; higher = more stable
Description: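 Folding stability of de novo designed mini-proteins (<80 aa, no Cys; designed by TrROS, TrMRF, ProteinMPNN and the joint model) was measured by cDNA display proteolysis with trypsin and chymotrypsin. Each protease was used at 11 concentrations in a threefold dilution series plus a no-protease condition. K50 was inferred by Bayesian fitting of sequencing counts, and dG unfold was derived against a sequence-predicted unfolded-state K50 (Tsuboyama et al. method). Sequences shown include variable-length N-terminal GS-type padding (SAGGSAGG...) inside a display construct carrying a PA tag. Rows were kept only if the AF2 dimer inter-PAE was >15, to exclude likely homo-oligomers.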

[2] = folding stability dG unfold (combined trypsin and chymotrypsin); higher = more stable
How it was run: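 Mini-proteins designed to be under 80 residues and free of cysteine were carried in a PA-tagged cDNA display construct and digested with trypsin and with chymotrypsin. Each protease was applied at 11 threefold-diluted concentrations, alongside a no-protease condition, before sequencing. K50 came from Bayesian fitting of the sequencing counts, and unfolding free energy was obtained by comparing it with a sequence-predicted unfolded-state K50 and a shared folded-state K50, for each protease separately or for both together. Designs were retained only if their AlphaFold2 dimer inter-PAE exceeded 15.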

Row | Sequence | folding stability dG unfold [1] [kcal/mol] | folding stability dG unfold [2] [kcal/mol]
1 | SAGGSAGGSAGGMITKVTVTYLPGGEVSLTITDENGTPSEKTLSLAELKKYPDIPLELDPSAGGSAGGSAGG [r7_238_JUSTAS] | 0.174 ± 0.05 | -0.374 ± 0.088
2 | SAGGSAGGSANSSSLPPNYVTPLPITVTDSRPGSYMPLEEREARAQALAEANPGVTVTVVRESAGGSAGGSA [r18_499_JUSTAS] | -0.373 ± 0.099 | < -1
3 | SAGGSANMREVEIPMTPNDLEEALEEVEDAPPGRNVSVNMTNPEEGKPYPIKIRVNENGKLTEIEFSAGGSA [r15_228_TrROS] | 0.501 ± 0.077 | -0.179 ± 0.27
4 | SAGGSAGGMPSDTPFTITKITSVTLNDGRGTTKAVVSYPDGSLVTISSSELERLTKENPNLNLVSAGGSAGG [r6_78_JUSTAS] | 0.384 ± 0.062 | -0.0536 ± 0.13
5 | SSFMEQARNMAEELLQKKGLPPKPGEKVEIPIPYPNGMQIRITINPEEKKIDVEFYNDNQPVEHTFKIKKSA [r9_426_TrROS] | 0.267 ± 0.33 | -0.821 ± 0.76
6 | SAGGSAGGSIKVPKNSKVTVLYEKGGKKIEVSGIVDPKTGKILETDSLENLPDAKIVEIKVEDSAGGSAGGS [r12_6_TrMRF] | -0.742 ± 0.15 | < -1
7 | SAGGTVKVTVEVRDEETGETVTVEVEVEPAPAPPVVVLPAEDLEKLRELGFPENAVLDEETNELVIFSAGGS [r16_194_TrROS_Hall] | 0.537 ± 0.085 | -0.204 ± 0.24
8 | SAGMEVTVTDPIPLDPTPDGVPDVKPELVEERAKAAGFTDEIESVDTTPKPDSVTTTVTHPTATLTAGSAGG [r19_398_JUSTAS] | -0.201 ± 0.082 | < -1
9 | SAGGSAGGSYPIFDKEKGKLDPGPPEKELDVVIKVKKDGKWYPIDLKLSKSDLIRFVKELEKDSAGGSAGGS [r20_148_TrMRF] | -0.698 ± 0.24 | < -1
10 | SAGGSAGGSAGPPTSILEVKPGGEVTIKEGGTPVTVPSSVPYINLPEGGSAGSVEVPPELSAGGSAGGSAGG [r11_647_JUSTAS] | 0.394 ± 0.042 | -0.314 ± 0.31
11 | SAGGSAGGSAGNMKEVEFTIPGAPPDELADNLPPGIKDVEIERNPEARENGGYSIKAYVDSAGGSAGGSAGG [r11_1002_TrROS] | -0.0749 ± 0.17 | < -1
12 | SAGGSLVTELIENNPEFQALLESGTTLKVTFPGGLSGEIEVKNKSPEEIEKAILARNPGPVEIEITGSAGGS [r16_655_JUSTAS] | 0.384 ± 0.11 | -0.192 ± 0.2
13 | SAGDWMMVEMTVDFPPDQITEEEIKQALQEHFGEVEIDWNPGDGRIPITVYMPPGDMNKIQDALKEAGLSAG [r5_378_TrROS] | 0.755 ± 0.053 | 0.218 ± 0.19
14 | SAGGSASPEELAERVAKEIEEKYPVEVTEIRVEEVSEDEVVLSMTYRKPLPGGETEVENRTVTLPQSAGGSA [r15_276_JUSTAS] | 0.162 ± 0.26 | -0.404 ± 0.46
15 | SAGGSAGGSAGLVKLKDKNGKLITLEVKEVEVVEVKEVTLKPKPKPKKTLKLSEEELKKLSAGGSAGGSAGG [r17_484_TrROS_Hall] | -0.143 ± 0.075 | -0.494 ± 0.25
16 | SAGGSAGGSAGEPEKPVLVKVILPGGKPLLIPGKREEAKKAVEELEKKGFPVEKAEVFDESAGGSAGGSAGG [r11_946_TrMRF] | -0.485 ± 0.096 | < -1
17 | SAGGSAGGSNIVSARPLGDLVLIEIEPGGKPLRAVVRPSELPPNPPIPPGLSYRVEPGSVSDYSAGGSAGGS [r12_1005_TrMRF] | -1.09 ± 0.28 | < -1
18 | SAGGGSHTFKDNGKKIKITVYPPPNGNMRVQLQIYDPDDGKPKPKAIAPFRGGSVEDAIKDLLDAGISAGGS [r16_378_TrROS] | -0.0278 ± 0.19 | -0.625 ± 0.32
19 | SAGGSAGGSKIKILFDPNMTLEEAIELAEKLTKEFDAEVELEIIPKPKPKPLPVIDPENPKLLSAGGSAGGS [r12_159_TrMRF] | 0.252 ± 0.028 | -0.72 ± 0.3
20 | SAGGGSMVNISKEELAKKIAKELGKDFPTENVKVKKEIYPEPVSIYTITIKVPGTNITLNVPITLPESAGGS [r16_42_JUSTAS] | -0.043 ± 0.098 | -0.226 ± 0.22
21 | SAGGALAVKVEFDEEIPTATITYRAPVPGEGGAVDVPADEVAAAIAKALGLPDLEEVTVNVPAPDAPLSAGG [r13_327_JUSTAS] | 0.197 ± 0.075 | -0.543 ± 0.22
22 | SAGGSAGGSAGGSMAIPVYLKIENKVLTSLDELKEAVESGKPIEIERIEAFDLSPDEEVSAGGSAGGSAGGS [r4_479_TrMRF] | -0.74 ± 0.35 | < -1
23 | SAGGSAGGSVKVTTEPLPNGERLVTVTAYLKSKPYPVLMPYPASATPEQVKETALRIEKELEKSAGGSAGGS [r12_69_TrMRF] | -0.999 ± 0.49 | < -1
24 | SVVTLEQVAELVEKGVELVAVLPDNRLLFYDPEREEPIELEVEEVPPPKPIFIEGGVESLEEALKFLEAESA [r9_649_TrMRF] | 0.456 ± 0.027 | -0.381 ± 0.37
